We go through three molecules from publication PMC8359418, “Genome‐wide analysis of in vivo CcpA binding with and without its key co‐factor HPr in the major human pathogen group A Streptococcus” (Molecular Microbiology, 2020).

Experiment [1] concerns the target recombinant wild type GAS CcpA (catabolite control protein A) (group A Streptococcus (Streptococcus pyogenes)). Nature of the experiment: SPR; CcpA (3,700 RU) or CcpAV301A (4,200 RU) immobilised on CM5 by amine coupling; HPr or HPrSer46~P injected, 2-fold dilutions 1.25 to 80 uM; PBS pH 7.4, 25°C; steady-state responses fitted to a one-site binding model; BIAcore T200. In general terms: Surface plasmon resonance follows binding to a sensor surface in real time, without labels.

Experiment [2] addresses recombinant GAS CcpA with V301A change (group A Streptococcus (Streptococcus pyogenes)). The description is as above.
In experiment [3] the target is T1, CcpA endogenous in GAS strain MGAS2221 (Streptococcus pyogenes (endogenous in …, UniProt Q9A118 1-333)).
T1 construct: Catabolite control protein A (CcpA) of Streptococcus pyogenes serotype emm1 strain MGAS2221 (gene content identical to MGAS5005); also called wild type CcpA; source: endogenous, lysate of cross-linked MGAS2221 cells
Nature of the experiment: co-IP; GAS strains grown to mid-exponential phase in THY, cross-linked with EGS and formaldehyde, sonicated; precipitated with polyclonal anti-CcpA antibody, Western blot with anti-HPr antibody, quantified (Odyssey). Particulars: partners not purified. In general terms: A western blot detects proteins with antibodies after separation by electrophoresis.

The term Kd denotes the concentration at which binding is half-saturated. Consider “recombinant GAS HPr (histidine-containing protein), unphosphorylated (natural protein)”, for which the Kd in experiment [1] stood at 188 µM. With “recombinant GAS HPr phosphorylated at Ser46 (natural protein)”, the Kd in experiment [2] was found to be 153 µM; in experiment [1], 5.8 µM.

B1: HPr endogenous in GAS strains MGAS2221 and 2221-CcpA-V301A (natural protein)
chain: MASKDFHIVAETGIHARPATLLVQTASKFASDITLDYKGKAVNLKSIMGVMSLGVGQGADVTISAEGADAEDAIAAIEETMTKEGLA
notes: Phosphocarrier protein HPr (ptsH) of Streptococcus pyogenes serotype emm1 strain MGAS2221 and its isoallelic derivative; Detected with an anti-HPr antibody; the phosphorylation state of the co-precipitated HPr was not determined (by Phos-tag gels most cellular HPr was unphosphorylated); also called HPr~P; source: endogenous, lysates of cross-linked MGAS2221 and 2221-CcpA-V301A cells
As for B1, the “fold more HPr co-immunoprecipitated than from strain 2221-CcpA-V301A” value in experiment [3] came to 10 fold.
